# Results as given in article PMC12743552, “Key residues regulating von Willebrand factor A1/A2 interactions: insights from molecular dynamics simulations and experimental validation” (Research and Practice in Thrombosis and Haemostasis, 2025).
# B1: VWF-A1 mutant A1_mut (D1323A/R1334A/Q1367A) (domain or fragment)
# chain: QEPGGLVVPPTDAPVSPTTLYVEDISEPPLHDFYCSRLLDLVFLLDGSSRLSEAEFEVLKAFVVDMMERLRISQKWVRVAVVEYHAGSHAYIGLKDAKRPSELRRIASQVKYAGSQVASTSEVLKYTLFAIFSKIDRPEASRITLLLMASQEPQRMSRNFVRYVQGLKKKKVIVIPVGIGPHANLKQIRLIEKQAPENKAFVLSSVDELEQQRDEIVSYLCDLAPEAPPPTLPPD
# notes: von Willebrand factor, A1 domain, residues Q1238-D1472, with D1323A, R1334A and Q1367A; source: HEK293F cells, culture medium collected, purified (Ni2+-Hi-Trap chelating column); not shown: His tag, N-terminal, kept
# B2: recombinant VWF-A2 (von Willebrand factor A2 domain, amino acids M1473-G1672), wild type (domain or fragment)
# chain: MAQVTVGPGLLGVSTLGPKRNSMVLDVAFVLEGSDKIGEADFNRSKEFMEEVIQRMDVGQDSIHVTVLQYSYMVTVEYPFSEAQSKGDILQRVREIRYQGGNRTNTGLALRYLSDHSFLVSQGDREQAPNLVYMVTGNPASDEIKRLPGDIQVVPIGVGPNANVQELERIGWPNAPILIQDFETLPREAPDLVLQRCCSG
# modifications: biotinylated in the BLI assay (site not stated); not said to be biotinylated in the AFM assay
# notes: von Willebrand factor, A2 domain, residues M1473-G1672; cloned from a full-length VWF plasmid (MiaoLingBio); Secreted into the medium of HEK293F cells; The discussion calls the host HEK293 cells; source: HEK293F cells, culture medium collected, purified (Ni2+-Hi-Trap chelating column); not shown: His tag, N-terminal, kept
# Tests used:
# [1] = molecular target: von Willebrand factor A2 G1481-R1668 (Homo sapiens) (UniProt P04275); details: cited from earlier work
# [2] = molecular target: B2; experiment: atomic force microscopy (adhesion frequency and rupture force); VWF-A2 (15 ug/mL) held on the cantilever tip and VWF-A1 or its variants (15 ug/mL) on polystyrene dishes, each through adsorbed mouse anti-His mAb; blocked with 2% BSA; approach-retraction speed 200 nm/s in 2% BSA; 100 contact cycles a point; details: both partners purified
# [3] = molecular target: T1, recombinant VWF-A1 (von Willebrand factor A1 domain, amino acids Q1238-D1472), wild type (UniProt P04275 1238-1472); experiment: BLI; biotinylated A2 (10 ug/mL) immobilised on streptavidin biosensors, quenched with biocytin; A1 125-4000 nM in solution; Octet R8, 30 °C, 1000 rpm; PBS with 0.02% Tween-20 and 0.1% BSA; global fit to a 1:1 Langmuir model; details: both partners purified
# T1 construct: von Willebrand factor, A1 domain, residues Q1238-D1472; cloned from a full-length VWF plasmid (MiaoLingBio); Secreted into the medium of HEK293F cells; The tag is 6xHis to judge from the anti-6xHis antibody used for capture; also called WT A1; WT VWF-A1; source: HEK293F cells, culture medium collected, purified (Ni2+-Hi-Trap chelating column); not shown: His tag, N-terminal, kept
# [4] = molecular target: B1; experiment: as above; details: both partners purified
molecule,measurement,setting,value
von Willebrand factor A1 A1 (from UniProt P04275),Kd,[1],0.0649 µM
B1,adhesion frequency,[2],14.5%
same,average rupture force,[2],41.5 pN
same,central peak value (XC) of the rupture force distribution,[2],35 pN
"VWF-A2 mutant A2_mut (V1546A/R1575A/E1598A) (domain or fragment, von Willebrand factor, A2 domain, residues M1473-G1672, with V1546A, R1575A and E1598A; source: HEK293F cells, culture medium collected, purified (Ni2+-Hi-Trap chelating column); not shown: His tag, N-terminal, kept) MAQVTVGPGLLGVSTLGPKRNSMVLDVAFVLEGSDKIGEADFNRSKEFMEEVIQRMDVGQDSIHVTVLQYSYMATVEYPFSEAQSKGDILQRVREIRYQGGNATNTGLALRYLSDHSFLVSQGDRAQAPNLVYMVTGNPASDEIKRLPGDIQVVPIGVGPNANVQELERIGWPNAPILIQDFETLPREAPDLVLQRCCSG",Kd,[3],4.2 µM
same,koff,[3],0.046 s⁻¹
same,kon,[3],11000 M⁻¹ s⁻¹
B2,Kd,[3],2.16 µM
same,koff,[3],0.037 s⁻¹
same,kon,[3],17000 M⁻¹ s⁻¹
same,Kd,[4],6.1 µM
same,koff,[4],0.081 s⁻¹
same,kon,[4],13000 M⁻¹ s⁻¹
